Source: the domain aggregation screens of Martell et al. (2025)

Test: soluble fraction after stress (log2 fold change); higher = more stays soluble; pooled small domains, quantitative proteomics
Details: stress: 75 degC
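Further: 20 min heating vs room temperature control held 20 min.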

| Sequence | soluble fraction (log2) |
| --- | --- |
| HMPLTPATADAGRFVKQDRKYIRLLAKRYNFTHGDIKSEIDRVSAVLSSNGIDRVPLFLYKEYLEQYLAG | -2.04 |
| HMPLTRSDVKRIQLWLMAHGYDIGSPDGVFGDKSNRAANAFLSQQGRSLETVTLGKLYDILEAN | -2.58 |
| HMPMINLYQRLNLPPTASRAEIEAALAQYRSELSTAEIRGVQEWLLVNEVRHRYDAKLRQEQPSFFI | -1.08 |
| HMPMTLGENIARLRTQKDWSQGDLADALGISRQSISKWETDTSIPELEKLIKLSELFGVTLDQLVRGE | -0.406 |
| HMPNILLSVKDASVAISVSSKMVRLLIASGRLKAVNLGKRMTRISLQELTDFAQRQGGNVVLP | -0.123 |
| HMPNLAAAIGARVTIRLREASGGFRDIVGTLQRFGDGVNELLNSKGQIISFSEDEIAIWREIK | -3.33 |
| HMPNQIKQIAVNTASVSDIATIPGISFDFAKEIWEFRILRQKIGSLSELQKIEGMTASKYALIELYLHI | -3.71 |
| HMPNSIKAPAYLHNIARIYDHVLIDVEKASSAYEKLIKKYPNHPLSINAKLYLENAFNRSDEELLNMIKEN | -0.892 |
| HMPNYVEMLRLHEAGFSLRQIAKLVSSGRNTVTRTVNIAQEKELSYEEIAQWSSEELENMFKPD | -2.25 |
| HMPPDIKVVGVTVASDPRASFAMLSSNGKTLSYRVNDLIEGTEYHLIKVEAAAITIATAGGQSTQIAF | -2.54 |
| HMPPFTYHLERAKRKTVGFIVDERGVTVRAPRWVSVSEIEKMLQTKEAWIQKKLTEFHNWQKE | -3.39 |
| HMPPHGHIVELLPEQDFGRIETGDGRLVYFHRNSVLDGDFAQLAVGDAVRFAEEMGERGPQASSVHVE | 0.0508 |
| HMPPLKYLKVKSYLEAVAVKAESAMRMPTVRELMNQFNVSLATVNRALSELENDGVIVRRQGSGIVAAG | -0.00508 |
| HMPPSGPWEQDPPSEAQLKPFNEAMKRTADIDVDLYEKAKKALNDGTITKGNIYDWINREDSPWVLQDGS | 0.241 |
| HMPPSQRVNRILSLAGITSRRKADEYILEGRVTVNGEVLKEPGAKAVWGTDDIRVDGKPIPALS | 0.0835 |
| HMPPSVAETLKRLRRHKSLSLEELAQMSGVSRSMLSQIERDATNPTVATLWRITAALGVSIDEVLGV | -2.43 |

| Sequence | soluble fraction (log2) |
| --- | --- |
| HMPPTEQVYRSHVPPQYDGFPIEKYFTTRFSYQDVEEWSRQILAGKIEVNGKTALIGQILSASDLTVTRA | -0.895 |
| HMPQETPIPKSEIQSYDEIWLEPISTDNILRNELRGWYHVKDRWVENEFGNRFYLDTYASKWLAFPS | -0.333 |
| HMPQKIVIQKGVVIKKRERSDAWQIYITVKGKKPIRKSANTDNVEKAKQMALTLFAEKNYKVENNLPIQ | -1.17 |
| HMPQLSNEEQKIVDALEGSDGKQINLITVETNIPMARLMSVLFEMEMRGIVKSLNGARYKLN | -1.3 |
| HMPQTDDSEPLGKYGRMRLAYLKNQRPVLYNQMLLNGTLWPHLQDVQKTAYEWLERTMTTLLDK | 0.0585 |
| HMPRDQQENIYLLEKGKRLYEEHLGDQRQIIGHRIMIFERILESQDHAQIRRAQSEFAEFLSHYDG | -0.8 |
| HMPRDYYAVLEVSVSSTPVQIRQAYQRLARRYSPDVNFLDRDTEALFEEIVEAYRVLSNPTARTLYDRG | -4.52 |
| HMPREQQENVYLLEKAKRLYEEYLGDQRQTIGHALAQFERVLESQDPAAIRRAQKEFGEFLERYDG | -0.0743 |
| HMPREVKLPPDLLDALEASPEAKAFFLQLSYTHQKEYAQWIEEAKQEATRQRRLEKTVQMLLEGRRT | -1.27 |
| HMPRFDINFKVGEVVTIKGGSFDGQQGEISEIDHEHGKIKVMLEVLGRLTPVEVEHTEIEKI | -0.269 |
| HMPRKLDDQLQEQIRYLKSNYPRMSAAGIFRQLQDNGSIKHGDVSESTINRYVNLLSIEMKTTT | -0.395 |
| HMPRNMTFAIRGEYITLDALLKAVGAADSGAQAKHRIAEGEVTVDGVVETRKTRKLRGGETVVVDDLAVVL | -0.734 |
| HMPRQREVPDVSGWTEQHAKVYLEALGYRVKVIYLEVSSFDKGLVQETSPAKGSKVEEGDTIDLRVSNQE | -2.64 |
| HMPRSLGADLRAIRKGRRLTLTDMAEALDRSVGWVSQVERDISTPSISDLRRMAEILDVPVSLLFG | -3.17 |
| HMPSARELLATNIVRLRKEKGWSQEDLALEAGLHRTFVAHVERHARNISLDNIERLANALQVNVHILLL | -3.81 |
